Measurements reported in PMC4488944.

Key:
Assay in all cases: fluorescence polarisation
[1] = biological target: fluorescent peptide corresponding to the SH3 binding motif of SepJ (Anabaena sp. strain PCC 7120)
[2] = biological target: SepJ peptide bearing proline-to-serine substitutions (Anabaena sp. strain PCC 7120)
[3] = biological target: fluorescent peptide corresponding to the SH3 binding motif of FraC (Anabaena sp. strain PCC 7120)

Kd [1]: 39 µM
Kd [2]: > 2000 µM
Kd [3]: 12 µM
Substance: His-tagged SjcF1 (All1861 without transmembrane domain) (domain or fragment)
